# Measurements published in the supplement of paper PMC10567573.
# B1: ADAMTSL2 (parent)
# chain: KKPPEESTCFERPCFKWYTSPWSE
# Variants of: B1
# Assay: protein stability index of a GFP-peptide fusion (GPS, HEK-293T) (PSI 1-6); higher = more stable
# Settings: c terminus: a fixed tail appended
# 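Also: lentivirally expressed fusions sorted by FACS into six bins by GFP to DsRed ratio, PSI derived from sequencing read proportions per bin multiplied by bin number.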
row,Variant,protein stability index
1,KKPPEESTCFERPQFKWYTSPWSE,2.68
2,KKPPEESTCFERPKFKWYTSPWSE,2.69
3,KKPPEESTCFERPRFKWYTSPWSE,3.7
4,KKPPEESTCFERPYFKWYTSPWSE,2.02
5,KKPPEESTCFERPMFKWYTSPWSE,2.62
6,KKPPEESTCFERPWFKWYTSPWSE,1.9
7,KKPPEESTCFERPPFKWYTSPWSE,3.09
8,KKPPEESTCFERPAFKWYTSPWSE,2.94
9,KKPPEESTCFERPIFKWYTSPWSE,2.23
10,KKPPEESTCFERPDFKWYTSPWSE,3.26
11,KKPPEESTCFERPNFKWYTSPWSE,2.98
12,KKPPEESTCFERPSFKWYTSPWSE,2.23
13,KKPPEESTCFERPGFKWYTSPWSE,3.12
14,KKPPEESTCFERPFFKWYTSPWSE,2.39
15,KKPPEESTCFERPLFKWYTSPWSE,2.25
16,KKPPEESTCFERPHFKWYTSPWSE,2.23
17,KKPPEESTCFERPVFKWYTSPWSE,2.58
18,KKPPEESTCFERPTFKWYTSPWSE,2.42
19,KKPPEESTCFERPEFKWYTSPWSE,2.89
20,KKPPEESTCFERPCFKIYTSPWSE,2.46
21,KKPPEESTCFERPCFKAYTSPWSE,3.79
22,KKPPEESTCFERPCFKFYTSPWSE,2.88
23,KKPPEESTCFERPCFKYYTSPWSE,2.86
24,KKPPEESTCFERPCFKLYTSPWSE,2.37

row,Variant,protein stability index
1,KKPPEESTCFERPCFKQYTSPWSE,2.85
2,KKPPEESTCFERPCFKCYTSPWSE,2.56
3,KKPPEESTCFERPCFKGYTSPWSE,3.35
4,KKPPEESTCFERPCFKNYTSPWSE,3.42
5,KKPPEESTCFERPCFKKYTSPWSE,3.53
6,KKPPEESTCFERPCFKMYTSPWSE,2.9
7,KKPPEESTCFERPCFKVYTSPWSE,2.52
8,KKPPEESTCFERPCFKSYTSPWSE,3.33
9,KKPPEESTCFERPCFKPYTSPWSE,3.5
10,KKPPEESTCFERPCFKEYTSPWSE,3.19
11,KKPPEESTCFERPCFKTYTSPWSE,2.9
12,KKPPEESTCFERPCFKHYTSPWSE,2.57
13,KKPPEESTCFERPCFKRYTSPWSE,2.96
14,KKPPEESTCFERPCFKDYTSPWSE,3.6
15,KKPPEESTCFERYCFKWYTSPWSE,1.87
16,KKPPEESTCFERGCFKWYTSPWSE,2.27
17,KKPPEESTCFERDCFKWYTSPWSE,2.39
18,KKPPEESTCFERFCFKWYTSPWSE,2.18
19,KKPPEESTCFERSCFKWYTSPWSE,2.31
20,KKPPEESTCFERICFKWYTSPWSE,2.02
21,KKPPEESTCFERACFKWYTSPWSE,2.23
22,KKPPEESTCFERECFKWYTSPWSE,2.49
23,KKPPEESTCFERNCFKWYTSPWSE,2.32
24,KKPPEESTCFERMCFKWYTSPWSE,2.02

row,Variant,protein stability index
1,KKPPEESTCFERCCFKWYTSPWSE,1.84
2,KKPPEESTCFERRCFKWYTSPWSE,1.79
3,KKPPEESTCFERTCFKWYTSPWSE,2.16
4,KKPPEESTCFERVCFKWYTSPWSE,1.96
5,KKPPEESTCFERKCFKWYTSPWSE,2.58
6,KKPPEESTCFERLCFKWYTSPWSE,2.09
7,KKPPEESTCFERQCFKWYTSPWSE,2.1
8,KKPPEESTCFERHCFKWYTSPWSE,2.21
9,KKPPEESTCFERPCFVWYTSPWSE,1.94
10,KKPPEESTCFERPCFHWYTSPWSE,4.02
11,KKPPEESTCFERPCFTWYTSPWSE,2.22
12,KKPPEESTCFERPCFIWYTSPWSE,1.77
13,KKPPEESTCFERPCFQWYTSPWSE,2.8
14,KKPPEESTCFERPCFCWYTSPWSE,2.07
15,KKPPEESTCFERPCFSWYTSPWSE,2.49
16,KKPPEESTCFERPCFGWYTSPWSE,1.67
17,KKPPEESTCFERPCFMWYTSPWSE,2.43
18,KKPPEESTCFERPCFEWYTSPWSE,3.35
19,KKPPEESTCFERPCFFWYTSPWSE,1.9
20,KKPPEESTCFERPCFPWYTSPWSE,2.13
21,KKPPEESTCFERPCFDWYTSPWSE,3.04
22,KKPPEESTCFERPCFNWYTSPWSE,2.63
23,KKPPEESTCFERPCFYWYTSPWSE,1.72
24,KKPPEESTCFERPCFWWYTSPWSE,1.86

row,Variant,protein stability index
1,KKPPEESTCFERPCFRWYTSPWSE,2.27
2,KKPPEESTCFERPCFLWYTSPWSE,2.51
3,KKPPEESTCFERPCFAWYTSPWSE,2.62
4,KKPPEESTCFERPCFKWYDSPWSE,2.65
5,KKPPEESTCFERPCFKWYLSPWSE,2.73
6,KKPPEESTCFERPCFKWYWSPWSE,2.05
7,KKPPEESTCFERPCFKWYQSPWSE,1.89
8,KKPPEESTCFERPCFKWYFSPWSE,2.28
9,KKPPEESTCFERPCFKWYESPWSE,3.38
10,KKPPEESTCFERPCFKWYMSPWSE,2.2
11,KKPPEESTCFERPCFKWYGSPWSE,2.82
12,KKPPEESTCFERPCFKWYRSPWSE,2.22
13,KKPPEESTCFERPCFKWYCSPWSE,2.13
14,KKPPEESTCFERPCFKWYKSPWSE,2.03
15,KKPPEESTCFERPCFKWYYSPWSE,1.84
16,KKPPEESTCFERPCFKWYISPWSE,2.35
17,KKPPEESTCFERPCFKWYSSPWSE,3.24
18,KKPPEESTCFERPCFKWYHSPWSE,2.65
19,KKPPEESTCFERPCFKWYPSPWSE,2.86
20,KKPPEESTCFERPCFKWYASPWSE,2.28
21,KKPPEESTCFERPCFKWYVSPWSE,2.78
22,KKPPEESTCFERPCFKWYNSPWSE,3.43
